Test system: T1, Nc1ncnc2c1ncn2[C@@H]1O[C@H](COP(=O)(O)OP(=O)(O)OP(=O)(O)O)[C@@H](O)[C@H]1O
T1 construct: Purified Pgp extracted from Chinese Hamster Ovary B30 cells, reconstituted in giant liposomes
Test: Km of ATP from Rho123 transport rates in giant proteoliposomes; colorimetric ATPase assay
Type: biochemical, Cricetulus griseus

P-glycoprotein (Pgp, ABCB1) (Cricetulus griseus), sequence (chain, as listed by the source): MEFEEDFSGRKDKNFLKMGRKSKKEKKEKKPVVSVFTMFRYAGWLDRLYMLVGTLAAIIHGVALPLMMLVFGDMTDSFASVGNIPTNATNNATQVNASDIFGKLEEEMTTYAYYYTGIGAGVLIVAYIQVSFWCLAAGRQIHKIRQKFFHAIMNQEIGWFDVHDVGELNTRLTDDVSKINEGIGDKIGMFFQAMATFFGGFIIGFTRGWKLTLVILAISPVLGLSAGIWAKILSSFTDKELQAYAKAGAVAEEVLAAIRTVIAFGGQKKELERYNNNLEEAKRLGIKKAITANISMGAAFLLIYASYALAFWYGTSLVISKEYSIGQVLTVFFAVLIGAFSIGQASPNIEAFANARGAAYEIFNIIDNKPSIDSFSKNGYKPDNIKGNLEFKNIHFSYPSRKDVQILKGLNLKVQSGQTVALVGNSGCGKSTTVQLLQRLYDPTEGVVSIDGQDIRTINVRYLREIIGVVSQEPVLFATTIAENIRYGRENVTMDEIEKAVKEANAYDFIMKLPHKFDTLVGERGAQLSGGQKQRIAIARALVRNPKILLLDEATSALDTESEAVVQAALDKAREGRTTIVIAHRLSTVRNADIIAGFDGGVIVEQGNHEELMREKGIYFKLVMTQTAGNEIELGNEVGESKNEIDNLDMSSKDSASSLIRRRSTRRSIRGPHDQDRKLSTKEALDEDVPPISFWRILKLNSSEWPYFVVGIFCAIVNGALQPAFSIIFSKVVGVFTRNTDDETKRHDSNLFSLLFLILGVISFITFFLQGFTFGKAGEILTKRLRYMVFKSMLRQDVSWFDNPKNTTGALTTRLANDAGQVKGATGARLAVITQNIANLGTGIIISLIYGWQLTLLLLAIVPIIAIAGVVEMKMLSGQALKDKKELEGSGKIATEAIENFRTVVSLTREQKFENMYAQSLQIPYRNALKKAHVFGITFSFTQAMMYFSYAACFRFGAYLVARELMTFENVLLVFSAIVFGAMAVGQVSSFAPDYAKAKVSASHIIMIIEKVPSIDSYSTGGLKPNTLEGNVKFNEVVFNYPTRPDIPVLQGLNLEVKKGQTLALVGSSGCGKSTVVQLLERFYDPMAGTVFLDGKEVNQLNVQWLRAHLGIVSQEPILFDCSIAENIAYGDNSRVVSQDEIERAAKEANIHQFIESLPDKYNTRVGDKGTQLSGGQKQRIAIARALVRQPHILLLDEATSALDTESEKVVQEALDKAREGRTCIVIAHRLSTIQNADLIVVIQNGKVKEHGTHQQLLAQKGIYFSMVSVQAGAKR

With “P-glycoprotein (Pgp, ABCB1) (Cricetulus griseus)” the Km was 420 ± 750 µM.
